Reference: patent US20100168031

How the values were obtained:
[1] = test system: L(+)-biotinyl-aminohexanoyl-Glu-Asp-Glu-Asp-Asp-Tyr-His-Asn-Pro-Gly-Gly-OH (SEQ ID NO:14)
[2] = test system: L(+)-biotinyl-aminohexanoyl-Glu-Glu-Gly-Ala-Pro-Asp-Tyr-Glu-Asn-Leu-Gln-Glu-Leu-Asn (SEQ ID NO:12)
[3] = test system: L(+)-biotinyl-aminohexanoyl-Glu-Ser-Ile-Asp-Asp-Tyr-Val-Asn-Val-Pro-Glu-Gly-OH (SEQ ID NO:13)
[4] = test system: compounds of SEQ ID NO:12; SEQ ID NO: 13; or SEQ ID NO: 14

With “recombinant full-length human Syk (p72syk protein tyrosine kinase)” the “phosphorylation of the peptide by the kinase, time resolved fluorescence resonance energy transfer” value (“phosphorylation of the peptide” for short) [1] was “are phosphorylated by Syk”, the “phosphorylation of the peptide” value [2] was “are phosphorylated by Syk” and the “phosphorylation of the peptide” value [3] was “are phosphorylated by Syk”. For the same substance, the “fluorescence units (TR-FRET phosphorylation assay, 370 nM peptide, 10 nM Syk, 20 µM ATP)” value [4] was 20,000 to 30,000 fluorescence units.
